Reference: a protein production outcome set (Wang et al. 2014)

Test: label from the status in PepcDB records

Sequence	protein production
MPRSTWFKALLLLVALWAPLSQAETGWQPIQETIRKSDKDNRQYQAIRLDNGMVVLLVSDPQAVKSLSALVVPVGSLEDPEAYQGLAHYLEHMSLMGSKKYPQADSLAEYLKMHGGSHNASTAPYRTAFYLEVENDALPGAVDRLADAIAEPLLDKKYAERERNAVNAELTMARTRDGMRMAQVSAETINPAHPGSKFSGGNLETLSDKPGNPVQQALKDFHEKYYSANLMKAVIYSNKPLPELAKMAADTFGRVPNKESKKPEITVPVVTDAQKGIIIHYVPALPRKVLRVEFRIDNNSAKFRSKTDELITYLIGNRSPGTLSDWLQKQGLVEGISANSDPIVNGNSGVLAISASLTDKGLANRDQVVAAIFSYLNLLREKGIDKQYFDELANVLDIDFRYPSITRDMDYVEWLADTMIRVPVEHTLDAVNIADRYDAKAVKERLAMMTPQNARIWYISPKEPHNKTAYFVDAPYQVDKISAQTFADWQKKAADIALSLPELNPYIPDDFSLIKSEKKYDHPELIVDESNLRVVYAPSRYFASEPKADVSLILRNPKAMDSARNQVMFALNDYLAGLALDQLSNQASVGGISFSTNANNGLMVNANGYTQRLPQLFQALLEGYFSYTATEDQLEQAKSWYNQMMDSAEKGKAFEQAIMPAQMLSQVPYFSRDERRKILPSITLKEVLAYRDALKSGARPEFMVIGNMTEAQATTLARDVQKQLGADGSEWCRNKDVVVDKKQSVIFEKAGNSTDSALAAVFVPTGYDEYTSSAYSSLLGQIVQPWFYNQLRTEEQLGYAVFAFPMSVGRQWGMGFLLQSNDKQPSFLWERYKAFFPTAEAKLRAMKPDEFAQIQQAVITQMLQAPQTLGEEASKLSKDFDRGNMRFDSRDKIVAQIKLLTPQKLADFFHQAVVEPQGMAILSQISGSQNGKAEYVHPEGWKVWENVSALQQTMPLMSEKNE	not failed
MPRSTWFKALLLLVALWAPLSQAETGWQPIQETIRKSDKDNRQYQAIRLDNGMVVLLVSDPQAVKSLSALVVPVGSLEDPEAYQGLAHYLEHMSLMGSKKYPQADSLAEYLKMHGGSHNASXAPYRTAFYLEVENDALPGAVDRLADAIAEPLLDKKYAERERNAVNAELTMARTRDGMRMAQVSAETINPAHPGSKFSGGNLETLSDKPGNPVQQALKDFHEKYYSANLMKAVIYSNKPLPELAKMAADTFGRVPNKESKKPEITVPVVTDAQKGIIIHYVPALPRKVLRVEFRIDNNSAKFRSKTDELITYLIGNRSPGTLSDWLQKQGLVEGISANSDPIVNGNSGVLAISASLTDKGLANRDQVVAAIFSYLNLLREKGIDKQYFDELANVLDIDFRYPSITRDMDYVEWLADTMIRVPVEHTLDAVNIADRYDAKAVKERLAMMTPQNARIWYISPKEPHNKTAYFVDAPYQVDKISEQTFADWQQKAANIALSLPELNPYIPDDFSLIKSEKKYDHPELIVDESNLRVVYAPSRYFSSEPKADVSLILRNPKAMDSARNQVMFALNDYLAGLALDQLSNQASVGGISFSTNANNGLMVNANGYTQRLPQLFQALLEGYFSYTATEDQLEQAKSWYNQMMDSAEKGKAFEQAIMPAQMLSQVPYFSRDERRKILPSITLKEVLAYRDALKSGARPEFMVIGNMTEAQATTLARDVQKQLGADGSEWCRNKDVVVDKKQSVIFEKAGNSTDSALAAVFVPTGYDEYTSSAYSSLLGQIVQPWFYNQLRTEEQLGYAVFAFPMSVGRQWGMGFLLQSNDKQPSFLWERYKAFFPTAEAKLRAMKPDEFAQIQQAVITQMLQAPQTLGEEALKLSKDFDRGNMRFDSRDKIVAQIKLLTPQKLADFFHQAVVEPQGMAILSQISGSQNGKAEYVHPEGWKVWENVSALQQTMPLMSEKNE	failed
MPSDSQNNKRIAQNTLLLYFRMLFLMLVSLYTSRVNLNALGIEDFGIYNVVGGLVAMFSIISGSLVSSISRFITFELGTENKEKLKKVFSTAVSIQFFLVIIVVILAETIGLWFLNNKMVIPEERILAANIIYQFSIISFALSLMSIPYTGTIVAHEKMSAFAYISIFDVIGKLAVALTISIAPIDKLIWFAGFIVFNSTIIQSIYIFYCKRHFEECTYHFIFDKSLLKNMFGFAGWNFIGSIAAILRDQGGNIVINMFCGPAVNAARGVAMQVNNAVSGFVSNFQTALNPQITKSYASGNYDYMMQLIFQGARLSYYILLILALPIISNTHFILQLWLGQVPKHTVLFVQLVLFFTMSESLANPLINAMLATGKIKKFQIIVGGLNLVNLPLSYICLRLGCIPESVVIIAIIISMICEMARVIMLRNMIHFPARSFLKKVYFNVIFVTITASILPLYLHFILEENIYTFTLISVVSFSCTLLSILYIGCSSEERVMVFSKVKVIVNKVSKRYK	failed
MPSEAKYTWDQELNEINIQFPVTGDADSSAIKIRIVGKKICVKNQGEIVIDGELLHEVDVSSLWWVINGDVVDVNVTKKRNEWWDSLLVGSESVDVQKLAENKHADMSMLDAEAREVVEKMMHNTSGKDSE	not failed
MPSLTPRCIIVRHGQTEWSKSGQYTGLTDLPLTPYGEGQMLRTGESVFRNNQFLNPDNITYIFTSPRLRARQTVDLVLKPLSDEQRAKIRVVVDDDLREWEYGDYEGMLTREIIELRKSRGLDKERPWNIWRDGCENGETTQQIGLRLSRAIARIQNLHRKHQSEGRASDIMVFAHGHALRYFAAIWFGLGVQKKCETIEEIQNVKSYDDDTVPYVKLESYRHLVDNPCFLLDAGGIGVLSYAHHNIDEPALELAGPFVSPPEEESQHGDV	not failed
MPSQSFNAFCPDWATALLNGFSQIFLQRHPLCGLLCLLAILVSAPALLGAALLGALAGLLTAQRRWYAKADRQAGLFSYNGVLLGLLLGLYLPWSVLLPPLIIAAGGLSAIITQQWLKRARNPASLPAYTAPFVGLGWLLLSLIEPLPAATQGVPGLSLANLLGGLFQGLGQIMFLGQPLAGLLILLGLLLASRRAAAWALFGSACGLLFALLLQEHAQALQGLGGYNCALVALALGQQARHPWRPLLGMLLALLISPGLVALGLAPLTAPFVLACWLVHTVDRVLGRNVRGDAPCAPPANPPRLR	failed
MPSSRRVRSRCCAFGITKRFACIRPACQRARMDAQMTNFETRLRENAAKTEALLGHLLSGEARADEITRPQNLLEAMRHGVLNGGKRLRPFLVIESVALLGGDAEAGLHVGAALECLHCYSLVHDDLPAMDDDDLRRGQPTVHRKFDEATAILAGDSLLTLAFDIIASDDNPLAAERKAALVISLARAAGIGGMAGGQALDLAAEKKAPDEDGIITLQAMKTGALLRFACEAGAIIAGSNQAERQRLRLFGEKIGLSFQLADDLLDLTADAATMGKATGKDAARGKGTLVALRGEAWAREKLQE	not failed
MPSSSNSAAFSLDEFAKALDKHDYHAEKGQTVHGKICQHANEGVYVDFGGKSPGFVPVQELGLRPHAEIEDSFPLDSAWDFLVTSEQNDEGQVRLSRRQLQIQQSWENLAELEESGKTLEMVVTGTNKGGVVGDVEGLRGFIPRSHLMHKDNMDALVGQVLKAHILEANQDNNKLVLTQRRIQQAESMGKIAAGNIYEGKVAKIQPYGVFVEIEGVTGLLHVSQVSGTRVDSLNTLFAFGQAISVYVQEIDEYKNRISLSTRILETYPGELVEKFDEMMADAPNRLPLVQSKQNLGDKQEQLEKSLEHHHHHH	failed
MPSSTFSGTVSTPKLSVAVDMGNPFLNLTVDAFLKIGAVGVTKSLAEDTYKAIDKGSLSKSTLEHALKKLCKEGVYWGAAGGVYIGTEYGIERIRGSRDWKNAMLAGAATGAVLSAVGKKGKDTIVIDAILGGALATASQFVNNHYFY	failed
MPTDDIVQLLKGQEEAWNRGDLDAYMQGYWQNEQLMLISNGKFRNGWDETLAAYKKNYPDKESLGELKFTIKEIKMLSNYAAMVVGRWDLKRLKDTPTGVFTLLVEKIDDRWVITMDHSSD	not failed
MPTFHEIDVLRHNSASWDAQAARDCEWSRPVSAEEVAAARRGDWAVKLTPGALPAHWLGDVRGREILCLASAGGQQAPILAAAGARVTLFDASAGQLDKDRQVAARDRLELACVQGDMRDLSTFADASFDLVFNPISNLYVDDVLPVWRECARVLRPGGKLLASFYNPALFIEDRSPELAEQGLIRPRHRLPYSDLESLSAEALAAKREKGEALVFGHSLTQQIAGQLAAGLLLQDFYEDWQPHPRFVIDRFVPTFLATCALKPRSAAG	failed
MPTISTSVCVNYTQDQMYELVNDVADYPKYLPLCRDVRVLSAADRHIKATITLAKGAVRLNFTTANTMEPGRHIHMKLVDGPFKYLRGNWRFDANPHGGCDVSFRVDFEFANPLLQMALGGIFREVMESLVAAFCNQAAKRYGNAGPALPPGQAQDGVGRSGSV	failed
MPTKKADIYTLAKFGDLGAFKESFKIENINDKSESGSGLLHYAISGLKFDIAMFLIENGIDVNITNEVGQTALHYICNYPNIDVAKCILKHGGDINIRDKYYNNALWTAVFNCKGRYYDMVELFMEYSPDVETKNNAGRSPLDFAIQVGNEKLIKMLRKKE	failed
MPTLEMPVAAVLDSTVGSSEALPDFTSDRYKDAYSRINAIVIEGEQEAHDNYIAIGTLLPDHVEELKRLAKMEMRHKKGFTACGKNLGVEADMDFAREFFAPLRDNFQTALGQGKTPTCLLIQALLIEAFAISAYHTYIPVSDPFARKITEGVVKDEYTHLNYGEAWLKANLESCREELLEANRENLPLIRRMLDQVAGDAAVLQMDKEDLIEDFLIAYQESLTEIGFNTREITRMAAAALVS	not failed
MPTLKVAYIPEHFSTPLFFAQQQGYYKAHDLSIEFVKVPEGSGRLINLLNSNEVDIAIGLTEAFIADIAKGNENIHVLDTYVKSPLLWAVSTGSNRDDVTDAKQLKRIGVSRIGSGSYVMSFVLAHQLGVPSFDQFQVLSNFKNLRDSVNLKDGVEGSDAFMWEYFTSKKYYDNHEIKQIDQIYTPWSSWVVATSSDSLQAKSDVIKNFIDAVNQGIQYYNEHVDEAIEYISSNLDYSAEDAKEWTKTVEFNSRIGKTPLDWDTIVVKTKDTLKLAGVLAESDDVILKRLNSNVKKTNL	not failed
MPTNQDLQLAAHLRSQVTTLTRRLRREAQADPVQFSQLVVLGAIDRLGGDVTPSELAAAERMRSSNLAALLRELERGGLIVRHADPQDGRRTRVSLSSEGRRNLYGNRAKREEWLVRAMHACLDESERALLAAAGPLLTRLAQFEEP	not failed
MPTPIHVLPPHVARLIAAGEVVSRPLDVVRELVENALDAGASRIEIEVDGGGLERVQVRDNGSGIAAQSVPLAPARHATSKLTAGPETGSLSVTTLGFRGEALWAAAQAGELELTTRPAAQVGAARLRAQGDAVEVSRTSAPAGTTVTVSQLFARLPARLRTQASAAAEVRDITALLGRYVLHHSALHWRLTVDGDPRLTHAPADHRGAVATVYGPLSANRVLTLDTPGVRGVVSRPELTRARRDRMHFAVNGRPIVAPPELERAVIDAYAELLPAGTAPLCVLDLTVAPEDYDPNIHPAKQVVALADLPAVALRVRDAVAGALAGHPLVRAAPALIAPPEPHPAPTAGNFPDLTLLGVYQELYLLAQGEGDLWVVDAHAAHERALYERLGRELGTAAPLELPTPELLHLTPEQTARLHERGAELRGWGLTIEDFGAGLARLRTLPAALAALPVPRLHEVVVETALSGGPDPRREVLARLACLPALKAGMLDAERGALVLAALRECEQPWACPHGRPTVLRLSERDLAHAFGRRGVRDVARGRDSVV	failed
MPTVSVKWQKKVLDGIEIDVSLPPYVFKAQLYDLTGVPPERQKIMVKGGLLKDDGDWAAIGVKDGQKLMMMGTADEIVKAPEKAIVFAEDLPEEALATNLGYSAGLVNLGNTCYMNSTVQCLKSVPELKSALSNYSLAARSNDVDQTSHMLTVATRELFGELDRSVLRKKYPQFSQLQNGMHMQQDAEECWTQLLYTLSQSLKAPTSSEGADAVKALFGVNLQSRIKLGVLDNVTDSTVISKCTLHCQESGEESSETESVYSLKCHISHEVNHLHEGLKHGLKGELEKTSPALGRTALYVKESLIDSLPRYLTVQFVRFFWKRESNQKAKILRKVDYPLVLDIFDLCSEDLRKKLEAPRQKLREEEGKKLGLQTSAKSGSKDSDVKMTDAEASANGSGESSTVNPQEGTSSEKETHMTGIYDLVAVLTHKGRSADSGHYVAWVKQESGKWIQYDDDNPSMQREEDITKLSGGGDWHMAYITMYKARFVSM	failed
